In publication PMC6697693, “head-bent resistant Hsc70 variants show reduced Hsp40 affinity and altered protein folding activity” (Scientific Reports, 2019):

B1: BAG-1 (nematode nucleotide exchange factor), fluorescently labelled (natural protein, C. elegans, UniProt O44739 1-210, looked up)
chain: MKVNVSCSSVQTTIDILEENQGEDESILTLGQLRDRIATDNDVDVETMKLLHRGKFLQGADDVSLSTLNFKENDKIIVMGGKNALVDDAGFKMLMQYEKHNLSNLQKAYDLNLRDVADLERGFLEKPKQVEMGKKLEKKVKYFNEEAERHLETLDGMNIITETTPENQAKRNREKRKTLVNGIQTLLNQNDALLRRLQEYQSVLNGDIPE
modifications: ATTO 488 C5-maleimide at its cysteine residue
notes: BAG-1, nucleotide exchange factor of Hsc70 in C. elegans; unlabelled BAG-1 was used in the ATPase assays
B2: Hsc70 S321F (natural protein)
chain: not shown
notes: Hsc70 (HSP-1) of C. elegans, encoded by hsp-1, with the suppressor mutation S321F; forms heterogeneous oligomers; source: expressed from mutated pET28b-Hsc70 (QuickChange PCR), purified (Ni-NTA, ion-exchange, size exclusion chromatography)

Columns and labels:
[1] = target: T1, wild type Hsc70 (nematode Hsc70, HSP-1) (C. elegans, UniProt P09446 1-640); experiment: AUC; sedimentation velocity with fluorescence detection, 300 nM *BAG-1 with 2 µM Hsc70 variant, 42,000 rpm, 20 °C, 40 mM HEPES/KOH pH 7.5, 150 mM KCl, 1 mM DTT, 5 mM MgCl2; without nucleotide, and with ADP (complex diminished); conditions: both partners purified
T1 construct: Hsc70 (HSP-1) of C. elegans, encoded by hsp-1, the sole functional Hsc70-like protein of the nematode; About 70 kDa by ultracentrifugation; also called Hsc70 wild type; CeHsc70; source: expressed from pET28b-Hsc70, purified (Ni-NTA, ion-exchange, size exclusion chromatography)
T1 sequence (P09446 whole entry): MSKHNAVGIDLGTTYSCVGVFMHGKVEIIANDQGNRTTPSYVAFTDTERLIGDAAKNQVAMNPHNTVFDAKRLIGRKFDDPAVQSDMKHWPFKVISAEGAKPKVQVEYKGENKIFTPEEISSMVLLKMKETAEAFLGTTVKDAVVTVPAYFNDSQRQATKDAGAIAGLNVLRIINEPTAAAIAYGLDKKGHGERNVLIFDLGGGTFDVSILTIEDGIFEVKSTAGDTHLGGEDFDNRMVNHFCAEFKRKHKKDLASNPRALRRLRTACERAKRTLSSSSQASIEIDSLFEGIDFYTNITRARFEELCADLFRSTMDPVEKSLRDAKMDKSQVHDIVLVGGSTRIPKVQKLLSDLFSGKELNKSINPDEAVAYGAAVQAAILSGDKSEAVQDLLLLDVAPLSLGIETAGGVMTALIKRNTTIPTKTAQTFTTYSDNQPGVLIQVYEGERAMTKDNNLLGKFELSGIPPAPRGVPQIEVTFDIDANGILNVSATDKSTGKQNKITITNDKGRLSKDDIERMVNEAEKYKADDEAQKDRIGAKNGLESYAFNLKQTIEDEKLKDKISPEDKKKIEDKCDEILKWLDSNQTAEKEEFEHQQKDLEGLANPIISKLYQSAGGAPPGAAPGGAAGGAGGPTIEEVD

Hsc70 D233N = target: T2, Hsc70 D233N (C. elegans, UniProt P09446 1-640, D233N); experiment: as above; conditions: both partners purified
T2 construct: Hsc70 (HSP-1) of C. elegans, encoded by hsp-1, with the suppressor mutation D233N; Mutation was found in a mutagenesis screen as a suppressor of unc-23(e25); source: expressed from mutated pET28b-Hsc70 (QuickChange PCR), purified (Ni-NTA, ion-exchange, size exclusion chromatography)
T2 sequence (P09446 whole entry D233N): as the sequence (P09446 whole entry) above, with D233N counted along it

Hsc70 A379V = target: T3, Hsc70 A379V (C. elegans, UniProt P09446 1-640, A379V); experiment: as above; conditions: both partners purified
T3 construct: Hsc70 (HSP-1) of C. elegans, encoded by hsp-1, with the suppressor mutation A379V; Mutation was found in a mutagenesis screen as a suppressor of unc-23(e25); source: expressed from mutated pET28b-Hsc70 (QuickChange PCR), purified (Ni-NTA, ion-exchange, size exclusion chromatography)
T3 sequence (P09446 whole entry A379V): as the sequence (P09446 whole entry) above, with A379V counted along it

Hsc70 D384N = target: T4, Hsc70 D384N (C. elegans, UniProt P09446 1-640, D384N); experiment: as above; conditions: both partners purified
T4 construct: Hsc70 (HSP-1) of C. elegans, encoded by hsp-1, with the suppressor mutation D384N; Mutation was identified as a suppressor of unc-23(ok1408); source: expressed from mutated pET28b-Hsc70 (QuickChange PCR), purified (Ni-NTA, ion-exchange, size exclusion chromatography)
T4 sequence (P09446 whole entry D384N): as the sequence (P09446 whole entry) above, with D384N counted along it

[2] = target: the molecule itself; experiment: AUC; sedimentation velocity, UV/VIS optics, 0.5 mg/mL protein; dc/dt plots and UltraScan II analysis; oligomerization status of Hsc70 variants

| Binder | binding result [1] | binding result (Hsc70 D233N) | binding result (Hsc70 A379V) | binding result (Hsc70 D384N) | binding result [2] |
| --- | --- | --- | --- | --- | --- |
| B1 | binds | binds | binds | binds | – |
| B2 | – | – | – | – | binds |
